Measured values reported in FireProtDB (doi:10.1016/0022-2836(92)90557-z).

B1: Ribonuclease, P00648 (parent)
chain: MMKMEGIALKKRLSWISVCLLVLVSAAGMLFSTAAKTETSSHKAHTEAQVINTFDGVADYLQTYHKLPDNYITKSEAQALGWVASKGNLADVAPGKSIGGDIFSNREGKLPGKSGRTWREADINYTSGFRNSDRILYSSDWLIYKTTDHYQTFTKIR

Variants of: B1
Settings: Bacillus amyloliquefaciens; pH 6.3; 25 °C; Urea; Fluorescence; MES 1.00 M; NaCl 613 mM; reversible: yes; structure 1BNI; whole UniProt chain shown

Variant: MMKMEGIALKKRLSWISVCLLVLVSAAGMLFSTAAKTETSSHKAHTEAQVINTFDGVADYLQTYHKLPDNYITKSEAQALGWVASKGNLADVAPGKSIGGDIFSNREGKLPGKSGRTWREADINYTSGFRNSDRILYSSDWLIYKTTDHYQTFTKIA
- ddG of mutation (higher = less stable): 0.46 kcal/mol
- denaturant midpoint (higher = more stable): 4.37 M

Variant: MMKMEGIALKKRLSWISVCLLVLVSAAGMLFSTAAKTETSSHKAHTEAQVINTFAGVADYLQTYHKLPDNYITKSEAQALGWVASKGNLADVAPGKSIGGDIFSNREGKLPGKSGRTWREADINYTSGFRNSDRILYSSDWLIYKTTDHYQTFTKIA
- ddG of mutation (higher = less stable): 0.47 kcal/mol
- denaturant midpoint (higher = more stable): 4.36 M

Variant: MMKMEGIALKKRLSWISVCLLVLVSAAGMLFSTAAKTETSSHKAHTEAQVINTFAGVAAYLQTYHKLPDNYITKSEAQALGWVASKGNLADVAPGKSIGGDIFSNREGKLPGKSGRTWREADINYTSGFRNSDRILYSSDWLIYKTTDHYQTFTKIA
- ddG of mutation (higher = less stable): -0.11 kcal/mol
- denaturant midpoint (higher = more stable): 4.63 M

Variant: MMKMEGIALKKRLSWISVCLLVLVSAAGMLFSTAAKTETSSHKAHTEAQVINTFAGVADYLQTYHKLPDNYITKSEAQALGWVASKGNLADVAPGKSIGGDIFSNREGKLPGKSGRTWREADINYTSGFRNSDRILYSSDWLIYKTTDHYQTFTKIR
- ddG of mutation (higher = less stable): 0.99 kcal/mol
- denaturant midpoint (higher = more stable): 4.12 M

Variant: MMKMEGIALKKRLSWISVCLLVLVSAAGMLFSTAAKTETSSHKAHTEAQVINTFDGVAAYLQTYHKLPDNYITKSEAQALGWVASKGNLADVAPGKSIGGDIFSNREGKLPGKSGRTWREADINYTSGFRNSDRILYSSDWLIYKTTDHYQTFTKIR
- ddG of mutation (higher = less stable): 0.34 kcal/mol
- denaturant midpoint (higher = more stable): 4.42 M

Variant: MMKMEGIALKKRLSWISVCLLVLVSAAGMLFSTAAKTETSSHKAHTEAQVINTFAGVAAYLQTYHKLPDNYITKSEAQALGWVASKGNLADVAPGKSIGGDIFSNREGKLPGKSGRTWREADINYTSGFRNSDRILYSSDWLIYKTTDHYQTFTKIR
- ddG of mutation (higher = less stable): 0.89 kcal/mol
- denaturant midpoint (higher = more stable): 4.16 M
